From patent publication US20180094075A1 (Pfizer, published 2018)

What was measured:
[1] = target: human PTK7 expressed on cells (cancer cell lines with endogenous PTK7; HEK293T-PTK7 over-expressing cells) (human) (UniProt Q13308); test: flow cytometry, HEL cells, 10 µg/ml Ab
[2] = target: human PTK7 expressed on cells (cancer cell lines with endogenous PTK7; HEK293T-PTK7 over-expressing cells) (human) (UniProt Q13308); test: flow cytometry, MDAMB468 cells, 10 µg/ml Ab
[3] = target: human PTK7 expressed on cells (cancer cell lines with endogenous PTK7; HEK293T-PTK7 over-expressing cells) (human) (UniProt Q13308); test: flow cytometry, TF1 cells, 10 µg/ml Ab
[4] = target: human PTK7 expressed on cells (cancer cell lines with endogenous PTK7; HEK293T-PTK7 over-expressing cells) (human) (UniProt Q13308); test: flow cytometry, H1048 cells, 10 µg/ml Ab
[5] = target: human PTK7 expressed on cells (cancer cell lines with endogenous PTK7; HEK293T-PTK7 over-expressing cells) (human) (UniProt Q13308); test: flow cytometry, NB4 cells, 10 µg/ml Ab
[6] = target: human PTK7 expressed on cells (cancer cell lines with endogenous PTK7; HEK293T-PTK7 over-expressing cells) (human) (UniProt Q13308); test: flow cytometry, H1299 cells, 10 µg/ml Ab
[7] = target: human PTK7 expressed on cells (cancer cell lines with endogenous PTK7; HEK293T-PTK7 over-expressing cells) (human) (UniProt Q13308); test: flow cytometry, Kasumi-1 cells, 10 µg/ml Ab
[8] = target: human PTK7 expressed on cells (cancer cell lines with endogenous PTK7; HEK293T-PTK7 over-expressing cells) (human) (UniProt Q13308); test: flow cytometry, MDAMB361-DYT2 cells, 10 µg/ml Ab
[9] = target: human PTK7 expressed on cells (cancer cell lines with endogenous PTK7; HEK293T-PTK7 over-expressing cells) (human) (UniProt Q13308); test: flow cytometry, MV411 cells, 10 µg/ml Ab
[10] = target: human PTK7 expressed on cells (cancer cell lines with endogenous PTK7; HEK293T-PTK7 over-expressing cells) (human) (UniProt Q13308); test: flow cytometry, KG1 cells, 10 µg/ml Ab
[11] = target: human PTK7 expressed on cells (cancer cell lines with endogenous PTK7; HEK293T-PTK7 over-expressing cells) (human) (UniProt Q13308); test: flow cytometry, THP-1 cells, 10 µg/ml Ab
[12] = target: human PTK7 expressed on cells (cancer cell lines with endogenous PTK7; HEK293T-PTK7 over-expressing cells) (human) (UniProt Q13308); test: flow cytometry, HCC38 cells, 10 µg/ml Ab
[13] = target: human PTK7 expressed on cells (cancer cell lines with endogenous PTK7; HEK293T-PTK7 over-expressing cells) (human) (UniProt Q13308); test: flow cytometry, H446 cells, 10 µg/ml Ab
[14] = target: human PTK7 expressed on cells (cancer cell lines with endogenous PTK7; HEK293T-PTK7 over-expressing cells) (human) (UniProt Q13308); test: flow cytometry, HCC1806 cells, 10 µg/ml Ab
[15] = target: human PTK7 expressed on cells (cancer cell lines with endogenous PTK7; HEK293T-PTK7 over-expressing cells) (human) (UniProt Q13308); test: flow cytometry, MiaPaca cells, 10 µg/ml Ab
[16] = target: human PTK7 expressed on cells (cancer cell lines with endogenous PTK7; HEK293T-PTK7 over-expressing cells) (human) (UniProt Q13308); test: flow cytometry, ASPC1 cells (negligible PTK7 expression by immunoblot), 10 µg/ml Ab
[17] = target: human PTK7 expressed on cells (cancer cell lines with endogenous PTK7; HEK293T-PTK7 over-expressing cells) (human) (UniProt Q13308); test: flow cytometry, Hs700T cells, 10 µg/ml Ab
[18] = target: human PTK7 expressed on cells (cancer cell lines with endogenous PTK7; HEK293T-PTK7 over-expressing cells) (human) (UniProt Q13308); test: flow cytometry, HL60 cells, 10 µg/ml Ab
[19] = target: human PTK7 expressed on cells (cancer cell lines with endogenous PTK7; HEK293T-PTK7 over-expressing cells) (human) (UniProt Q13308); test: flow cytometry, DU4475 cells, 10 µg/ml Ab
[20] = target: human PTK7 expressed on cells (cancer cell lines with endogenous PTK7; HEK293T-PTK7 over-expressing cells) (human) (UniProt Q13308); test: flow cytometry, SKBR3 cells, 10 µg/ml Ab
[21] = target: human PTK7 expressed on cells (cancer cell lines with endogenous PTK7; HEK293T-PTK7 over-expressing cells) (human) (UniProt Q13308); test: flow cytometry, HEL92.1 cells, 10 µg/ml Ab
[22] = target: human PTK7 expressed on cells (cancer cell lines with endogenous PTK7; HEK293T-PTK7 over-expressing cells) (human) (UniProt Q13308); test: flow cytometry, HCC1937 cells, 10 µg/ml Ab
[23] = target: human PTK7 expressed on cells (cancer cell lines with endogenous PTK7; HEK293T-PTK7 over-expressing cells) (human) (UniProt Q13308); test: flow cytometry, H596 cells, 10 µg/ml Ab
[24] = target: human PTK7 expressed on cells (cancer cell lines with endogenous PTK7; HEK293T-PTK7 over-expressing cells) (human) (UniProt Q13308); test: flow cytometry, H520 cells, 10 µg/ml Ab
[25] = target: human PTK7 expressed on cells (cancer cell lines with endogenous PTK7; HEK293T-PTK7 over-expressing cells) (human) (UniProt Q13308); test: flow cytometry, H522 cells, 10 µg/ml Ab
[26] = target: human PTK7 expressed on cells (cancer cell lines with endogenous PTK7; HEK293T-PTK7 over-expressing cells) (human) (UniProt Q13308); test: flow cytometry, H661 cells, 10 µg/ml Ab
[27] = target: human PTK7 expressed on cells (cancer cell lines with endogenous PTK7; HEK293T-PTK7 over-expressing cells) (human) (UniProt Q13308); test: flow cytometry, H358 cells, 10 µg/ml Ab
[28] = target: human PTK7 expressed on cells (cancer cell lines with endogenous PTK7; HEK293T-PTK7 over-expressing cells) (human) (UniProt Q13308); test: flow cytometry, HL60 MX2 cells, 10 µg/ml Ab

human PTK7 expressed on cells (cancer cell lines with endogenous PTK7; HEK293T-PTK7 over-expressing cells) (human), sequence (Q13308 31-1070 L93P limits assumed): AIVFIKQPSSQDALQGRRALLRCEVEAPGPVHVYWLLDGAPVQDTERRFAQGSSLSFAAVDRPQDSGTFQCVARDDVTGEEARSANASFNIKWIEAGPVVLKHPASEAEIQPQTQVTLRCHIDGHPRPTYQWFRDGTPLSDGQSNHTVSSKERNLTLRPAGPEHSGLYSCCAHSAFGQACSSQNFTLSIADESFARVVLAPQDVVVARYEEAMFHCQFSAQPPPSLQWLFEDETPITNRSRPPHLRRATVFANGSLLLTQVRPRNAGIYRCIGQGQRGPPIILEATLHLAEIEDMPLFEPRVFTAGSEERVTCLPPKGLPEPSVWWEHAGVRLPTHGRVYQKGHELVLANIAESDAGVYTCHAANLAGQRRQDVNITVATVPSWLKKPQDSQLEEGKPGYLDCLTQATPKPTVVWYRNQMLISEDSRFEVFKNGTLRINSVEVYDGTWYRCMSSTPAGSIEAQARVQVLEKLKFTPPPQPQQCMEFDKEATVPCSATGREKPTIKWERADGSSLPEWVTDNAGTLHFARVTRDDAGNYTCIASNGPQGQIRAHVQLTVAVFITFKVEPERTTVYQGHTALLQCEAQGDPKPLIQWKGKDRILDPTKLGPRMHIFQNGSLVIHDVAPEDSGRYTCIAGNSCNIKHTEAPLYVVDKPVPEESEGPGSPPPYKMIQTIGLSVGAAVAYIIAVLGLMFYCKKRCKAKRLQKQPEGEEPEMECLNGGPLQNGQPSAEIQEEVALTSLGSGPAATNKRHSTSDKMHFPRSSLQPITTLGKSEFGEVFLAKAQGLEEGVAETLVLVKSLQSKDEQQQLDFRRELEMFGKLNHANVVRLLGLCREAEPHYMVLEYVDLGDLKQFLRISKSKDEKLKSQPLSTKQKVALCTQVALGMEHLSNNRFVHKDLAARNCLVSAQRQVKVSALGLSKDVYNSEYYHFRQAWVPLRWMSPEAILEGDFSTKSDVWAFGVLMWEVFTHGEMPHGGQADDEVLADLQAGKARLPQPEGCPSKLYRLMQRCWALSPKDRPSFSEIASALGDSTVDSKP

Negative Control Ab (Table 8) (antibody)
Mean Fluorescent Intensity [1]: 15.7 | Mean Fluorescent Intensity [2]: 12 | Mean Fluorescent Intensity [3]: 5.9 | Mean Fluorescent Intensity [4]: 4.4 | Mean Fluorescent Intensity [5]: 6.8 | Mean Fluorescent Intensity [6]: 3 | Mean Fluorescent Intensity [7]: 5.3 | Mean Fluorescent Intensity [8]: 8.7 | Mean Fluorescent Intensity [9]: 7.7 | Mean Fluorescent Intensity [10]: 5.2 | Mean Fluorescent Intensity [11]: 4 | Mean Fluorescent Intensity [12]: 7.2 | Mean Fluorescent Intensity [13]: 7.1 | Mean Fluorescent Intensity [14]: 4.6 | Mean Fluorescent Intensity [15]: 3.5 | Mean Fluorescent Intensity [16]: 2.6 | Mean Fluorescent Intensity [17]: 4.9 | Mean Fluorescent Intensity [18]: 10.9 | Mean Fluorescent Intensity [19]: 3.8 | Mean Fluorescent Intensity [20]: 14.9 | Mean Fluorescent Intensity [21]: 7.7 | Mean Fluorescent Intensity [22]: 7.8 | Mean Fluorescent Intensity [23]: 21.4 | Mean Fluorescent Intensity [24]: 4.8 | Mean Fluorescent Intensity [25]: 3.8 | Mean Fluorescent Intensity [26]: 3.8 | Mean Fluorescent Intensity [27]: 4.5 | Mean Fluorescent Intensity [28]: 25.2
